Test: yeast display, Sf9 membrane polyspecificity reagent, FACS + sequencing; frameworks hold sequencing errors
Procedure, shortened: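 A nanobody's polyreactivity label depends on the gate it was sorted from. Yeast display cells were stained with 10% biotinylated, detergent-solubilized Sf9 membrane reagent for 1 hour at 4 °C, enriched on streptavidin microbeads and sorted by FACS. The low and high (top ~1%) gates were set on anti-HA fluorescence for expression and streptavidin fluorescence for reagent binding.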

Sequence	polyreactivity (PSR sort gate)
QVQLVESGGGLVQAGGILRLSCAASGSTFDINTMGWYRQAPGKEREFVAAITDSDDSTYYADSVKGRFTISRDHAKNTVYLLMNSLKPEDTAVDYCNYDYWGQGTQVTVAS	low polyreactivity
QVQLVESGGGLVQAGGILRLSCAASGSTFPFYAMGWYRQAPGKVRELVASINSDGSTNYADSVKGRFTISRDNAKNTVYLQMNSLKPEDTAVYYCAAGWQTRFYSRYYYWGQGTQVTVSS	high polyreactivity
QVQLVESGGGLVQAGGILRLSCAASGSTFYENAMGWYRQAPGKERELVAAITWSGGRTYYADSVKGRFTISRDNAKNTVYLQMNSLKPEDTAVYYCNARARSRKFYYWGQVTQVTVSS	high polyreactivity
QVQLVESGGGLVQAGGILRLSCAASGYIFGPNAMGCYRQAPGKERELVAGITWSTGNTYYAVSVKGRFTISRDNAKNTVYLHMNSLKPEDTAVYYCAADFYVAYEGVQPYWMDYWGQGTQVNVSS	low polyreactivity
QVQLVESGGGLVQAGGILRLSCAAYGSISYGYGMGWYRQPPGKERELVATLSGRAGSTYYADSVKGRFTISRDNAKYTVYLQMNSLKPEDTAVYYCAAKWWRLTWTAGYGGRCYGYWGQGSQVTVSS	low polyreactivity
QVQLVESGGGLVQAGGILRLSCADSGRTFWYYAMGWYRQAHGKERELVAAITRGGRTNYADSVKGRFTISRDNAKNTVYLQMNSLKPEDTAVYYCAADYRYPAHSYGYWGQGTQVTVSS	high polyreactivity
QVQLVESGGGLVQAGGILRLSCADSGSTFIGYAMGWYRQAPRKERELFAAISKSGGSTYYADSVKGRFTISRDNAKNTVYLQMNSLKPEDTAVYYCIVDTSRYVSWNDYWGQGTQVTVSS	high polyreactivity
QVQLVESGGGLVQAGGILRLSCASSGRTFAWYAMGWYRPAPGKERELVAAITTRGSGTYYADSVKGRFTISRDNAKNTVYLQMNSLKPEDTAVYYGAKDPITATTLDERVYYWGQGTQLTVSS	low polyreactivity
QVQLVESGGGLVQAGGILRLSCASSGSTFGYNVMGWYRQAPGKERELVAAISSSGGSTYYADSVKGRFTISRDTAKNTVYLQMNSLNPEDTAVYYGAADVGFRWYRYTAGPLEYDYWGQGTQVTVSS	high polyreactivity
QVQLVESGGGLVQAGGILRLSCPASGIIFDGNVMGWYRQAPGKEREFVASISISGGSTSYADSVKGRFTISRDNAKNTVYLQMNSLKPEDTAVYYCNTDVGYGRVWRWRYHGDYWGQGTQVTVSS	low polyreactivity
QVQLVESGGGLVQAGGNLRLICDASGSIFLYNTMGWYRHAPGQERELVAAITYSGGSTYYADSVKGRFTISRDNAKNTVYLQMNSLNPEDTAVYYCNARHYSAFYSWGQGTQVTVSS	high polyreactivity
QVQLVESGGGLVQAGGNLRLSCAASGIILYRYAMGWYRQAHGKERELVAAISRRGGSTYYADSVKGRFTISRDNAKNSVYLQMNSLKPEDTAVYYCAAYYRGYAYYYWGQGTQVTVSS	high polyreactivity
QVQLVESGGGLVQAGGNLRLSCAASGSIFYWNAMGWYRQAPGKERELVAAINYSGDSTYYADSVKVRFTISRDNAKNTVYLQMNSLKPEDTAVYYCNFDYWGQGSQVTVSS	low polyreactivity
QVQLVESGGGLVQAGGRHRISCAASGLICVTYAMGWYRQAPGKERELVAVITASGDGTYYADSVKGRFTMSRDNAKNTVYLQMNSLKPEDSAVYSCAAGNMSQVGAIGKNTSQSDYWGQGTHVTVSS	low polyreactivity
QVQLVESGGGLVQAGGRIRLSCAASGIIFYPYAMGWYRQAPGKERELVAGISSSGGSTYYADSVKGRFTISRDNAKNTVYLQMNSLKPEDTAVYYCAAVRISRTPRGLYEYWGQGTQVTVSS	high polyreactivity
QVQLVESGGGLVQAGGRIRLTCAASGFTFKAYSMGCDRQAPGKERELVAAITKSGGRTFYADSVKGRFRISRDNAKNTVYLQMNSLKPEDTAVYYCAASYTVYYWGQGTQVTVSS	high polyreactivity
QVQLVESGGGLVQAGGRLLLSCAASGLTFYEYAMGWYRQAHGKERELVADIDFNGGSTSYAYSVKGRFTISRDNAKNTVYLQMNSLKPEDTAVYYCNTRDRGDVVTGLDYSGQGTQVTVSS	low polyreactivity
QVQLVESGGGLVQAGGRLPLSCAASGSTIYINAMGWYRQPPGKQRELVAPISYSGGSSYFADSVKGRFTISRDYAKNTVYFQKNSLIPEDTRVYYCYARGLQSFYPGYWFRGDFWGQGTQVTVSS	high polyreactivity
QVQLVESGGGLVQAGGRLRISCAASGFTFTRYAMRWYRQAPGKERELVAAISWSGGSTYYADSVKGRFTISRDNAKNTVSFQMNSLKPEDTAVYYCAKRGTVRQGGYGFWGQGTQVSVSS	high polyreactivity
QVQLVESGGGLVQAGGRLRISCAASGSTFQPYAMGWYRQAPGKERELVAAISWRGGSTYYADSVKGRFTISRDNAKNTVYLQMNSLKPEDTAVSYCAAYFYFRRGTDYDYWGQGTQVTVSS	high polyreactivity
QVQLVESGGGLVQAGGRLRITCAASGRTFKTYAMGWYRPAPGKERELVAAISRRGGSTYFADSVKGRFTISRDNAKNTVYLQMNSLKPEDTAVYYCASGNSVGLGWGQGTQVTLSS	high polyreactivity
QVQLVESGGGLVQAGGRLRLICAASGSTFVTNYMGWYRQAPGKERELVAAISSGTSTNYADSVKGRFTISRDNAKNSVYLPMNSLTPEDTAVYYCAADSLKRYDYWGQGTQVTVSS	low polyreactivity

Sequence	polyreactivity (PSR sort gate)
QVQLVESGGGLVQAGGRLRLRCAASGFILDTYAMGGYRQAAGNERELVAGITVRGGSTYYADSVKGRFTISRDNAKNTVYLQMNSLKPEDTAVYYCNAAQDRFGYRRSGYWYDYWGQGTQVTVSS	low polyreactivity
QVQLVESGGGLVQAGGRLRLSCAAAGSIFSYTMGWYRQAPWKERELVAAIRRRGGSTYYADSVKGRFTISRDNAKNTVYLQMTSLKPEDTAVYYCAADGYQYRHRRFFYWGQGTQVTVSS	high polyreactivity
QVQLVESGGGLVQAGGRLRLSCAASASIFRLYAMGWYRQAPGKERELVAAIRWRAGSTYYADSVKGRFTLSRDNAKNTVYLQMNSLKPEETAVNYCAADAISSAWYAKYDYWGQGTQVTGSS	high polyreactivity
QVQLVESGGGLVQAGGRLRLSCAASGFIFRRYAIGWYRQAPGKERELVAAINRGGRTYYADSVKGRFTISRDNAKNTVYLQMNSLKPEDTAVYYCAVGSVSSDDWGQGTQVTVSS	high polyreactivity
QVQLVESGGGLVQAGGRLRLSCAASGFIFSYYAMGWYRQAPGKERELVAAINYSGGRTYYADSVKGRFTISRDNAKNTVYLQMNSLKPEDTAVYYCNAVTFGRRAFDYWGQGTQVTVSS	high polyreactivity
QVQLVESGGGLVQAGGRLRLSCAASGFIFYYYAMGWYRQAPGKERELVAVLTESASSTYYADSVKGRFTISRDNAKNTVYLQMNSLKPEDTAVYYCNADFWPYTGKYDYWGQGTQVTVSS	low polyreactivity
QVQLVESGGGLVQAGGRLRLSCAASGFTFGWNAMGWYRQAPGKEREMVASIYSGDSTYYADSVKGRFTISRDNAKNTVYLQMNSLKPEDTAVYYCATAPYVTSRRYGPYEYWGQGTQVTVSS	low polyreactivity
QVQLVESGGGLVQAGGRLRLSCAASGFTFNVNALGGYRPAPGKERELVATITWSDGSTRYADSVKGRFTISRDNAKNTVYLQMNSLKPEDTAVYYCATRWSYPYSYRYYYWGQGTQVTVSS	low polyreactivity
QVQLVESGGGLVQAGGRLRLSCAASGFTFTRYAMGWYRQAPGKERELVAAISWSGGSTYYADSVKGRFTISRDNAKNTVYLQMNSLKPEDTAVYYCAKRGTVRQGGYGYWGQGTQVTVSS	high polyreactivity
QVQLVESGGGLVQAGGRLRLSCAASGFTFYRYAMGWYRQAPGKVRQLVATISASGGSTYYADSVKGRFTISRDNAKNTVYLQMNSLKPEDTAVYYCAVRYKSWYGFNYWGQGTQVTVSS	high polyreactivity
QVQLVESGGGLVQAGGRLRLSCAASGFTLTRNAMGWYRQAPGKERELVAAISWSGGTTYYADSVKGRFTISRDNAKNTVYLQMNSLKPEDTAVYYCNTASLRAHYYYWGQGTQVTVSS	high polyreactivity
QVQLVESGGGLVQAGGRLRLSCAASGFTQGSYAMGWHRQAPGKEREFVAGITDSGGSTYYADSVKGRYTISRDNAKNTVYLQMNSLKPEDTAVYDCNADFAPWDKQDYPYDYDYWGQGTQVTVSS	low polyreactivity
QVQLVESGGGLVQAGGRLRLSCAASGITFKRYAMGWYRQAPRKERELVAAISDIGGRTYYADSVKGRFSISRDNAKNTVYLQMYSLKPEDTAVYYCAADYYSPVDWYYYWGQGTQVTVSS	high polyreactivity
QVQLVESGGGLVQAGGRLRLSCAASGITFWTYAMGWYRQAPGKERELVARISKSGARTFYADSVKGRFTISRDNAKNTVYLQMNSLKPEDTAVYYCAADRGPRPVTWYDYWGQGTQVTVSS	high polyreactivity
QVQLVESGGGLVQAGGRLRLSCAASGITSDVYAMGWYRQAPGKERELVAAISSAGSTYYADSVKGRFTISRDNAKNTVYLQMNSLKPEDTAVYYCDAAGYPQTYLYYYWGQGTQVTVSS	low polyreactivity
QVQLVESGGGLVQAGGRLRLSCAASGLTFYRNAMGWYRQAPGKERELVAAITTSGARTYYADSVKGRFTISRDNAKNTVYLRMNSLKPDVTAVYYCNAPVRRDVAYGYWGQGTQVTVSS	high polyreactivity
QVQLVESGGGLVQAGGRLRLSCAASGLTLRWYAMGWYRQAPGKERELVAVISGSGSTNYADSVKGRFTISRDNAKNTVYLQMNSLKPEDTAVYYCAAQSHLGTPQRFGYWGQGTQVTVSS	low polyreactivity
QVQLVESGGGLVQAGGRLRLSCAASGNTFGINAMGWYRQAPGKEREFVAAITFGGGRTYYADSVKGRFTISRDNAKNTVYFQMNSLKPEDTAVYFCAARAPVVTYTWSSPRWWFDYWGQGTQVTVSS	high polyreactivity
QVQLVESGGGLVQAGGRLRLSCAASGRIFKRYAMGWYRQAPGKESELVAAISWRGGSTYYADSVKGRFTISRDNAKNTVYFQMNSLKPEDTAVYYCAAGYFSYRRYDYWGQGTQVTVSS	high polyreactivity
QVQLVESGGGLVQAGGRLRLSCAASGRIFSYAMGWYRHAPGNERELVGGISRSGGSTYYADSVKGRFTISRDNAKNTVYLQMNSQKPVDTAVYYCAADSSLSASEYDSWGQGTQVTVSS	high polyreactivity
QVQLVESGGGLVQAGGRLRLSCAASGRIFVQYVMGWYRQAPGKERELVAAITGSDSTTYYADSVKGRFTISRDNAKNTVYLQMNSLKPEDTAVYYCNKDLWLQDDYWGQGTQVTVSS	low polyreactivity
